What was measured:
[1] = target: biotin-labeled UB2H domain of P. aeruginosa PBP1B (P. aeruginosa); experiment: BLI; UB2H-Biot (25 μg/ml) immobilised on streptavidin biosensors (OctetRED96e); LpoP 0 to 6 μM; HBS-T (10 mM Hepes pH 7.5, 150 mM NaCl, 0.02% Tween); 23°C; responses at equilibrium of two series fitted together
[2] = target: P. aeruginosa CpoB lacking its periplasmic export sequence (residues 22-274) (P. aeruginosa PA01); experiment: SEC; PaCpoB alone, last step of its purification, procedure as for LpoP
[3] = target: P. aeruginosa PBP1B (P. aeruginosa PA01)
[4] = target: P. aeruginosa PBP1B (P. aeruginosa PA01); experiment: SPR; PaPBP1B immobilised on a GLC amine coupling sensorchip (BioRad ProteOn XPR36); analyte in 1:1 serial dilution from 10 μM to 19.5 nM; 25°C; 75 μL/min, 5 min injection; 10 mM Tris/HCl, 150 mM NaCl, 0.05% Triton X-100, pH 7.5; response at equilibrium, non-linear regression assuming one-site saturation

Sequence of biotin-labeled UB2H domain of P. aeruginosa PBP1B (P. aeruginosa) (main, as listed by the source): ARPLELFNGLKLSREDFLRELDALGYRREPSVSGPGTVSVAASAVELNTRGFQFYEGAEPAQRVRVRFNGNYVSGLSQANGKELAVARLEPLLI

Substance: LpoP (residues 20-259), preparation for NMR and BLI (natural protein)
- Kd [1]: 400 nM

Substance: P. aeruginosa CpoB lacking its periplasmic export sequence (residues 22-274) (natural protein)
- stoichiometry N [2]: 3

Substance: LpoP lacking its lipoprotein sorting sequence (residues 20-259) (natural protein)
- GTase rate of PaPBP1B with and without LpoP (continuous fluorescence assay, 0.5 μM PaPBP1B, 10 μM LpoP, 37°C) [3]: 4.5 fold
- transpeptidation products made by PaPBP1B with and without LpoP (endpoint TPase assay with radiolabelled lipid II, 10 μM LpoP, 37°C, 3 h) [3]: 2 fold
- Kd [4]: 4200 nM
